{"source": "IntAct's records for PubMed 31515488", "parents": {"B1": {"name": "Coiled-coil domain-containing protein 70 (Homo sapiens), Q6NSX1 (parent)", "chain": "MFSFKVSRWMGLACFRSLAASSPSIRQKKLMHKLQEEKAFREEMKIFREKIEDFREEMWTFRGKIHAFRGQILGFWEEERPFWEEEKTFWKEEKSFWEMEKSFREEEKTFWKKYRTFWKEDKAFWKEDNALWERDRNLLQEDKALWEEEKALWVEERALLEGEKALWEDKTSLWEEENALWEEERAFWMENNGHIAGEQMLEDGPHNANRGQRLLAFSRGRA", "partner": "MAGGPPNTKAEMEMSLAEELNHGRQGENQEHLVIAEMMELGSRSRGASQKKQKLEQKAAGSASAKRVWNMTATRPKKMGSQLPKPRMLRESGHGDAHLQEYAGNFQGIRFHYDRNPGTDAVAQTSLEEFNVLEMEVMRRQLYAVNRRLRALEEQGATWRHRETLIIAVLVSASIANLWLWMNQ"}, "B2": {"name": "Centrosomal protein of 55 kDa (Homo sapiens), Q53EZ4 (parent)", "chain": "MSSRSTKDLIKSKWGSKPSNSKSETTLEKLKGEIAHLKTSVDEITSGKGKLTDKERHRLLEKIRVLEAEKEKNAYQLTEKDKEIQRLRDQLKARYSTTTLLEQLEETTREGERREQVLKALSEEKDVLKQQLSAATSRIAELESKTNTLRLSQTVAPNCFNSSINNIHEMEIQLKDALEKNQQWLVYDQQREVYVKGLLAKIFELEKKTETAAHSLPQQTKKPESEGYLQEEKQKCYNDLLASAKKDLEVERQTITQLSFELSEFRRKYEETQKEVHNLNQLLYSQRRADVQHLEDDRHKTEKIQKLREENDIARGKLEEEKKRSEELLSQVQFLYTSLLKQQEEQTRVALLEQQMQACTLDFENEKLDRQHVQHQLHVILKELRKARNQITQLESLKQLHEFAITEPLVTFQGETENREKVAASPKSPTAALNESLVECPKCNIQYPATEHRDLLVHVEYCSK", "partner": "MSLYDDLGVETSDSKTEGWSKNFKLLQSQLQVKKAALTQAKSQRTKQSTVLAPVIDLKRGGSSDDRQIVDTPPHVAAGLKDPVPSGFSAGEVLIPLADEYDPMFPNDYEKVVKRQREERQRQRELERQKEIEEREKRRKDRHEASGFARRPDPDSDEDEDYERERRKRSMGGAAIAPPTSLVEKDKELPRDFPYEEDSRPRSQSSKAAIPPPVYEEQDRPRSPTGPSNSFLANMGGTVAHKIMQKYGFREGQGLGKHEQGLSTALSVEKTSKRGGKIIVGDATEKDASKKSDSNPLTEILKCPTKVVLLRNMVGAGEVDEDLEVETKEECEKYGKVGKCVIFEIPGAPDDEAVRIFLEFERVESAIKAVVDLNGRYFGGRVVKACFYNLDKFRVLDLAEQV"}, "B3": {"name": "Notch homolog 2 N-terminal-like protein A (Homo sapiens), Q7Z3S9 (parent)", "chain": "MCVTYHNGTGYCKCPEGFLGEYCQHRDPCEKNRCQNGGTCVAQAMLGKATCRCASGFTGEDCQYSTSHPCFVSRPCLNGGTCHMLSRDTYECTCQVGFTGKECQWTDACLSHPCANGSTCTTVANQFSCKCLTGFTGQKCETDVNECDIPGHCQHGGTCLNLPGSYQCQCLQGFTGQYCDSLYVPCAPSPCVNGGTCRQTGDFTFECNCLPETVRRGTELWERDREVWNGKEHDEN", "partner": "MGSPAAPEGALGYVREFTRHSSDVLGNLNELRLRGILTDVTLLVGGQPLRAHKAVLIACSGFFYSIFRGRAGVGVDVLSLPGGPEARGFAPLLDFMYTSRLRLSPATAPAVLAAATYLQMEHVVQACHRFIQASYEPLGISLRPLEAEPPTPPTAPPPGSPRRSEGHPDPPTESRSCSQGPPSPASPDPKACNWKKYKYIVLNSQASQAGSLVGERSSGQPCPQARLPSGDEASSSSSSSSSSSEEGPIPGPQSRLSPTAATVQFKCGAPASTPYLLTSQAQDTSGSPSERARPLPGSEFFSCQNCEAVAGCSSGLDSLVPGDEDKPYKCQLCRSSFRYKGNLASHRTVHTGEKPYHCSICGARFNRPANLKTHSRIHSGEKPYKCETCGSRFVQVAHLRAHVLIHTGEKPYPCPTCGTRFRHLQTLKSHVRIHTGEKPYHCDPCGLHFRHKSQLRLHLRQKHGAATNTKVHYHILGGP"}, "B4": {"name": "Forkhead box protein R1 (Homo sapiens), Q6PIV2 (parent)", "chain": "MGNELFLAFTTSHLPLAEQKLARYKLRIVKPPKLPLEKKPNPDKDGPDYEPNLWMWVNPNIVYPPGKLEVSGRRKREDLTSTLPSSQPPQKEEDASCSEAAGVESLSQSSSKRSPPRKRFAFSPSTWELTEEEEAEDQEDSSSMALPSPHKRAPLQSRRLRQASSQAGRLWSRPPLNYFHLIALALRNSSPCGLNVQQIYSFTRKHFPFFRTAPEGWKNTVRHNLCFRDSFEKVPVSMQGGASTRPRSCLWKLTEEGHRRFAEEARALASTRLESIQQCMSQPDVMPFLFDL", "partner": "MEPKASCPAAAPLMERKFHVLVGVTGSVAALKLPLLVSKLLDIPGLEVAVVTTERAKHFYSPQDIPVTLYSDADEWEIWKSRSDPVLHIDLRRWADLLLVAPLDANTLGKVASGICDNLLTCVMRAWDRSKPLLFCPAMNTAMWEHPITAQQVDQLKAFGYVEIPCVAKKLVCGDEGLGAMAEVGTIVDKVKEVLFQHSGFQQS"}, "B5": {"name": "Keratin, type II cytoskeletal 2 epidermal (Homo sapiens), P35908 (parent)", "chain": "MSCQISCKSRGRGGGGGGFRGFSSGSAVVSGGSRRSTSSFSCLSRHGGGGGGFGGGGFGSRSLVGLGGTKSISISVAGGGGGFGAAGGFGGRGGGFGGGSSFGGGSGFSGGGFGGGGFGGGRFGGFGGPGGVGGLGGPGGFGPGGYPGGIHEVSVNQSLLQPLNVKVDPEIQNVKAQEREQIKTLNNKFASFIDKVRFLEQQNQVLQTKWELLQQMNVGTRPINLEPIFQGYIDSLKRYLDGLTAERTSQNSELNNMQDLVEDYKKKYEDEINKRTAAENDFVTLKKDVDNAYMIKVELQSKVDLLNQEIEFLKVLYDAEISQIHQSVTDTNVILSMDNSRNLDLDSIIAEVKAQYEEIAQRSKEEAEALYHSKYEELQVTVGRHGDSLKEIKIEISELNRVIQRLQGEIAHVKKQCKNVQDAIADAEQRGEHALKDARNKLNDLEEALQQAKEDLARLLRDYQELMNVKLALDVEIATYRKLLEGEECRMSGDLSSNVTVSVTSSTISSNVASKAAFGGSGGRGSSSGGGYSSGSSSYGSGGRQSGSRGGSGGGGSISGGGYGSGGGSGGRYGSGGGSKGGSISGGGYGSGGGKHSSGGGSRGGSSSGGGYGSGGGGSSSVKGSSGEAFGSSVTFSFR"}}, "data": [{"variants_of": "B1", "conditions": "with fate1_human FATE1, Q969F0", "values": [{"variant": "M200V", "effect of a mutation on the interaction": "with no effect"}]}, {"variants_of": "B2", "conditions": "with spf45_human RBM17, Q96I25", "values": [{"variant": "C236R", "effect of a mutation on the interaction": "with no effect"}, {"variant": "A244P", "effect of a mutation on the interaction": "with no effect"}, {"variant": "R348K", "effect of a mutation on the interaction": "with no effect"}, {"variant": "H57Q", "effect of a mutation on the interaction": "with no effect"}]}, {"variants_of": "B3", "conditions": "with bcl6b_human BCL6B", "values": [{"variant": "A115T", "effect of a mutation on the interaction": "with no effect"}, {"variant": "R74Q", "effect of a mutation on the interaction": "with no effect"}]}, {"variants_of": "B4", "conditions": "with coac_human PPCDC", "values": [{"variant": "W127C", "effect of a mutation on the interaction": "with no effect"}, {"variant": "E18G", "effect of a mutation on the interaction": "disrupting interaction strength"}, {"variant": "A8T", "effect of a mutation on the interaction": "with no effect"}]}, {"variants_of": "B5", "conditions": "with KRT19, P08727", "values": [{"variant": "A517G", "effect of a mutation on the interaction": "with no effect"}]}]}
